Data from patent US20220040297A1 (Chugai, published 2022).

B1: CE115HA000 G98Q (antibody, name in Kabat numbering, V domains shown)
VH: QVQLVESGGGVVQPGRSLRLSCAASGFTFSNAWMHWVRQAPGKGLEWVAQIKAKSNNYATYYAESVKGRFTISRDDSKNSLYLQMNSLKTEDTAVYYCRYVHYQAYYGVDAWGQGTTVTVSS
VL: DIVMTQSPLSLPVTPGEPASISCRSSQSLVHSNRNTYLHWYQQKPGQAPRLLIYKVSNRFSGVPDRFSGSGSGTDFTLKISRVEAEDVGVYYCGQGTQVPYTFGQGTKLEIK
B2: CE115HA000 H35F (antibody, name in Kabat numbering, V domains shown)
VH: QVQLVESGGGVVQPGRSLRLSCAASGFTFSNAWMFWVRQAPGKGLEWVAQIKAKSNNYATYYAESVKGRFTISRDDSKNSLYLQMNSLKTEDTAVYYCRYVHYGAYYGVDAWGQGTTVTVSS
VL: DIVMTQSPLSLPVTPGEPASISCRSSQSLVHSNRNTYLHWYQQKPGQAPRLLIYKVSNRFSGVPDRFSGSGSGTDFTLKISRVEAEDVGVYYCGQGTQVPYTFGQGTKLEIK
B3: CE115HA000 G100bE (antibody, name in Kabat numbering, V domains shown)
VH: QVQLVESGGGVVQPGRSLRLSCAASGFTFSNAWMHWVRQAPGKGLEWVAQIKAKSNNYATYYAESVKGRFTISRDDSKNSLYLQMNSLKTEDTAVYYCRYVHYGAYYEVDAWGQGTTVTVSS
VL: DIVMTQSPLSLPVTPGEPASISCRSSQSLVHSNRNTYLHWYQQKPGQAPRLLIYKVSNRFSGVPDRFSGSGSGTDFTLKISRVEAEDVGVYYCGQGTQVPYTFGQGTKLEIK
B4: CE115HA000 G98Y (antibody, name in Kabat numbering, V domains shown)
VH: QVQLVESGGGVVQPGRSLRLSCAASGFTFSNAWMHWVRQAPGKGLEWVAQIKAKSNNYATYYAESVKGRFTISRDDSKNSLYLQMNSLKTEDTAVYYCRYVHYYAYYGVDAWGQGTTVTVSS
VL: DIVMTQSPLSLPVTPGEPASISCRSSQSLVHSNRNTYLHWYQQKPGQAPRLLIYKVSNRFSGVPDRFSGSGSGTDFTLKISRVEAEDVGVYYCGQGTQVPYTFGQGTKLEIK
B5: CE115HA000 G100bS (antibody, name in Kabat numbering, V domains shown)
VH: QVQLVESGGGVVQPGRSLRLSCAASGFTFSNAWMHWVRQAPGKGLEWVAQIKAKSNNYATYYAESVKGRFTISRDDSKNSLYLQMNSLKTEDTAVYYCRYVHYGAYYSVDAWGQGTTVTVSS
VL: DIVMTQSPLSLPVTPGEPASISCRSSQSLVHSNRNTYLHWYQQKPGQAPRLLIYKVSNRFSGVPDRFSGSGSGTDFTLKISRVEAEDVGVYYCGQGTQVPYTFGQGTKLEIK
B6: CE115HA000 H35M (antibody, name in Kabat numbering, V domains shown)
VH: QVQLVESGGGVVQPGRSLRLSCAASGFTFSNAWMMWVRQAPGKGLEWVAQIKAKSNNYATYYAESVKGRFTISRDDSKNSLYLQMNSLKTEDTAVYYCRYVHYGAYYGVDAWGQGTTVTVSS
VL: DIVMTQSPLSLPVTPGEPASISCRSSQSLVHSNRNTYLHWYQQKPGQAPRLLIYKVSNRFSGVPDRFSGSGSGTDFTLKISRVEAEDVGVYYCGQGTQVPYTFGQGTKLEIK
B7: CE115HA000 H35K (antibody, name in Kabat numbering, V domains shown)
VH: QVQLVESGGGVVQPGRSLRLSCAASGFTFSNAWMKWVRQAPGKGLEWVAQIKAKSNNYATYYAESVKGRFTISRDDSKNSLYLQMNSLKTEDTAVYYCRYVHYGAYYGVDAWGQGTTVTVSS
VL: DIVMTQSPLSLPVTPGEPASISCRSSQSLVHSNRNTYLHWYQQKPGQAPRLLIYKVSNRFSGVPDRFSGSGSGTDFTLKISRVEAEDVGVYYCGQGTQVPYTFGQGTKLEIK
B8: CE115HA000 H35L (antibody, name in Kabat numbering, V domains shown)
VH: QVQLVESGGGVVQPGRSLRLSCAASGFTFSNAWMLWVRQAPGKGLEWVAQIKAKSNNYATYYAESVKGRFTISRDDSKNSLYLQMNSLKTEDTAVYYCRYVHYGAYYGVDAWGQGTTVTVSS
VL: DIVMTQSPLSLPVTPGEPASISCRSSQSLVHSNRNTYLHWYQQKPGQAPRLLIYKVSNRFSGVPDRFSGSGSGTDFTLKISRVEAEDVGVYYCGQGTQVPYTFGQGTKLEIK
B9: CE115HA000 H35I (antibody, name in Kabat numbering, V domains shown)
VH: QVQLVESGGGVVQPGRSLRLSCAASGFTFSNAWMIWVRQAPGKGLEWVAQIKAKSNNYATYYAESVKGRFTISRDDSKNSLYLQMNSLKTEDTAVYYCRYVHYGAYYGVDAWGQGTTVTVSS
VL: DIVMTQSPLSLPVTPGEPASISCRSSQSLVHSNRNTYLHWYQQKPGQAPRLLIYKVSNRFSGVPDRFSGSGSGTDFTLKISRVEAEDVGVYYCGQGTQVPYTFGQGTKLEIK
B10: CE115HA000 G100bI (antibody, name in Kabat numbering, V domains shown)
VH: QVQLVESGGGVVQPGRSLRLSCAASGFTFSNAWMHWVRQAPGKGLEWVAQIKAKSNNYATYYAESVKGRFTISRDDSKNSLYLQMNSLKTEDTAVYYCRYVHYGAYYIVDAWGQGTTVTVSS
VL: DIVMTQSPLSLPVTPGEPASISCRSSQSLVHSNRNTYLHWYQQKPGQAPRLLIYKVSNRFSGVPDRFSGSGSGTDFTLKISRVEAEDVGVYYCGQGTQVPYTFGQGTKLEIK
B11: CE115HA000 G98T (antibody, name in Kabat numbering, V domains shown)
VH: QVQLVESGGGVVQPGRSLRLSCAASGFTFSNAWMHWVRQAPGKGLEWVAQIKAKSNNYATYYAESVKGRFTISRDDSKNSLYLQMNSLKTEDTAVYYCRYVHYTAYYGVDAWGQGTTVTVSS
VL: DIVMTQSPLSLPVTPGEPASISCRSSQSLVHSNRNTYLHWYQQKPGQAPRLLIYKVSNRFSGVPDRFSGSGSGTDFTLKISRVEAEDVGVYYCGQGTQVPYTFGQGTKLEIK
B12: CE115HA000 H35D (antibody, name in Kabat numbering, V domains shown)
VH: QVQLVESGGGVVQPGRSLRLSCAASGFTFSNAWMDWVRQAPGKGLEWVAQIKAKSNNYATYYAESVKGRFTISRDDSKNSLYLQMNSLKTEDTAVYYCRYVHYGAYYGVDAWGQGTTVTVSS
VL: DIVMTQSPLSLPVTPGEPASISCRSSQSLVHSNRNTYLHWYQQKPGQAPRLLIYKVSNRFSGVPDRFSGSGSGTDFTLKISRVEAEDVGVYYCGQGTQVPYTFGQGTKLEIK
B13: CE115HA000 G100bY (antibody, name in Kabat numbering, V domains shown)
VH: QVQLVESGGGVVQPGRSLRLSCAASGFTFSNAWMHWVRQAPGKGLEWVAQIKAKSNNYATYYAESVKGRFTISRDDSKNSLYLQMNSLKTEDTAVYYCRYVHYGAYYYVDAWGQGTTVTVSS
VL: DIVMTQSPLSLPVTPGEPASISCRSSQSLVHSNRNTYLHWYQQKPGQAPRLLIYKVSNRFSGVPDRFSGSGSGTDFTLKISRVEAEDVGVYYCGQGTQVPYTFGQGTKLEIK
B14: CE115HA000 H35G (antibody, name in Kabat numbering, V domains shown)
VH: QVQLVESGGGVVQPGRSLRLSCAASGFTFSNAWMGWVRQAPGKGLEWVAQIKAKSNNYATYYAESVKGRFTISRDDSKNSLYLQMNSLKTEDTAVYYCRYVHYGAYYGVDAWGQGTTVTVSS
VL: DIVMTQSPLSLPVTPGEPASISCRSSQSLVHSNRNTYLHWYQQKPGQAPRLLIYKVSNRFSGVPDRFSGSGSGTDFTLKISRVEAEDVGVYYCGQGTQVPYTFGQGTKLEIK
B15: CE115HA000 G100bF (antibody, name in Kabat numbering, V domains shown)
VH: QVQLVESGGGVVQPGRSLRLSCAASGFTFSNAWMHWVRQAPGKGLEWVAQIKAKSNNYATYYAESVKGRFTISRDDSKNSLYLQMNSLKTEDTAVYYCRYVHYGAYYFVDAWGQGTTVTVSS
VL: DIVMTQSPLSLPVTPGEPASISCRSSQSLVHSNRNTYLHWYQQKPGQAPRLLIYKVSNRFSGVPDRFSGSGSGTDFTLKISRVEAEDVGVYYCGQGTQVPYTFGQGTKLEIK

Molecular target: T1, CD3ε homodimer protein (human, UniProt P07766 23-126, limits assumed, sulfo-tag or biotin label in some ECL assays)
T1 construct: also called human CD3ε homodimer protein; CD3 (CD3ε)
Assay: SPR, CD3ε homodimer on chip;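 also: biacore SPR with antibody variants flowed as analyte over amine-coupled CD3ε homodimer on a CM chip, bound amount of each single-residue H chain variant over that of parent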
Method: An appropriate amount of CD3ε homodimer protein was immobilized onto Sensor chip CM4 (GE Healthcare Japan Corp.) by the amine coupling method. Then, the antibody having an appropriate concentration was injected thereto as an analyte and allowed to interact with the CD3ε homodimer protein on the sensor chip. Then, the sensor chip was regenerated by the injection of 10 mmol/L glycine-HCl (pH 1.5). The assay was conducted at 25° C., and HBS-EP+ (GE Healthcare Japan Corp.) was used as a running buffer. […] Each parameter was calculated using Biacore T200 Evaluation Software (GE Healthcare Japan Corp.).
Specifically, when the amount of the antibody comprising CE115HA000 bound was defined as X and the amount of the H chain one-amino acid altered form bound was defined as Y, a value of Z (ratio of amounts bound)=Y/X was used.

T1 sequence (P07766 23-126 limits assumed): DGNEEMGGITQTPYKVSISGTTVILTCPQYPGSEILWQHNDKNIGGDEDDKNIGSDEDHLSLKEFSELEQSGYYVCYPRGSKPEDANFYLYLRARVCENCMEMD

| Binder | ratio of amounts bound vs CE115HA000 |
| --- | --- |
| B1 | 1.23 |
| B2 | 0.21 |
| B3 | 0.36 |
| B4 | 2.22 |
| B5 | 0.52 |
| B6 | 0.29 |
| B7 | 0.15 |
| B8 | 0.11 |
| B9 | 0.12 |
| B10 | 0.37 |
| B11 | 1 |
| B12 | 0.2 |
| B13 | 0.23 |
| B14 | 0.22 |
| B15 | 0.3 |
